We go through 1 substance from US20250207095A1.

The test concerns the target 4-1BB (UniProt Q07011). Kind of test: cell-based or functional assay.

4-1BB, sequence (Q07011 24-255 limits assumed): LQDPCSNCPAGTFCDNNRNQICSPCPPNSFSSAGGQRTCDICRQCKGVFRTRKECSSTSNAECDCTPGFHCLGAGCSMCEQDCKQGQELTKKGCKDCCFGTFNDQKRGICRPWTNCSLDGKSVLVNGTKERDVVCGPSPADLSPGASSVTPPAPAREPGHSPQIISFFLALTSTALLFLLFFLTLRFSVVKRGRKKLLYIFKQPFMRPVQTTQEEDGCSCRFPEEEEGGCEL

“4-1BB ligand (from UniProt P41273 1-254)” came in with an expansion of TRAC-1XX-iT cells from D35 to D42 of 30 fold.
